Patent US20200397913A1, “AXL-SPECIFIC ANTIBODY-DRUG CONJUGATES FOR CANCER TREATMENT” (GENMAB A/S, priority 2015, published 2020)
Marks after values point to notes of the source that are not given here.

Experiments:
[1] = system: MDA-MB-231 and Calu-1 cells; assay: Internalization of cell surface bound HuMab-AXL by flow cytometry; type: cell-based, human; details: 1 hour 4° C, then overnight 37° C versus 4° C
Protocol: Internalization of cell surface bound HuMab-AXL antibodies to MDA-MB-231 and Calu-1 cells (human lung carcinoma cell line; ATCC, catalognumber HTB-54) was evaluated by flow cytometry. 50,000 cells were seeded in 96-well tissue culture plates and allowed to attach for 6 hrs at 37° C. Plates were incubated at 4° C. for 30 minutes before incubation with serial dilutions of AXL-antibodies (final concentration range 0.0032-10 μg/mL) at 4° C. for 1 hour. Subsequently, the medium was replaced by tissue culture medium without antibody and cells were incubated overnight (16-18 hours) at 37° C. or 4° C. […] Finally, cells were washed twice in PBS/0.1% BSA/0.02% azide, resuspended in 120 μL PBS/0.1% BSA/0.02% azide and analyzed on a FACS Cantoll (BD Biosciences).
(§1) Binding curves were analyzed using non-linear regression (sigmoidal dose-response with variable slope) using GraphPad Prism V5.04 software (GraphPad Software, San Diego, Calif., USA).

[2] = biological target: Gas6 binding to AXL on A431 cells (Homo sapiens, UniProt P30530); assay: Gas6 binding to A431 cells pre-incubated with AXL antibodies; parameters: endogenous in cells; host or cells: A431; details: pre-incubation with 10 μg/mL antibody; control antibody b12
Protocol: Alternatively, A431 cells were pre-incubated with 10 μg/mL AXL antibodies (15 minutes, 4° C.) to assess if the AXL ligand Gas6 could still bind in presence of AXL antibodies. […] After washing three times in PBS/0.1% BSA/0.02% azide, cells were incubated with mouse anti-Gas6 IgG2a (R&D Systems; cat no. MAB885) at 4° C. for 30 min. After washing three times in PBS/0.1% BSA/0.02% azide, cells were incubated with FITC-labelled goat anti-mouse IgG (Dako, Heverlee, Belgium; cat no. F049702) at 4° C. for 30 min in the dark. Next, cells were washed twice in PBS/0.1% BSA/0.02% azide, resuspended in 120 μL PBS/0.1% BSA/0.02% azide and analyzed on a FACS Cantoll (BD Biosciences).
as §1
Therefore, binding of Gas6 to A431 cells that had been pre-incubated with 10 μg/mL AXL antibodies was tested as described in Example 2.

human AXL = biological target: T1, human AXL (Homo sapiens, UniProt P30530); assay: Flow cytometry binding to HEK293T cells transfected with full length human AXL; details: at least 3 experiments
T1 construct: expression constructs for full length human AXL; expressed in transfected cells; host or cells: HEK293T

AXL on A431 cells = biological target: T2, AXL on A431 cells (Homo sapiens, UniProt P30530); assay: Antibody binding to A431 cells with or without Gas6 pre-incubation; details: for Antibody binding to A431 cells: EC50 w/o Gas6 mean (s.d.): no Gas6 pre-incubation; for Antibody binding to A431 cells: EC50 in presence of Gas6 mean (s.d.): pre-incubation with 10 μg/mL Gas6
T2 construct: AXL-positive A431 cells were incubated; endogenous in cells; host or cells: A431

[3] = biological target: T3, AXLECDHis (extracellular domain of human AXL) (Homo sapiens, UniProt P30530); assay: Binding affinity by Bio-Layer Interferometry (Octet); details: for Kdis / Kon: soluble AXLECDHis, 30° C, 1:1 model
T3 construct: the extracellular domain (ECD) of human AXL (aa 1-447) with a C-terminal His tag (AXLECDHis); His tag (C); made in house; host or cells: HEK-293F

[4] = biological target: T4, human AXL with a mouse ECD (Mus musculus, UniProt Q00993, A791T/A867T/C878S/D603E/D853E/E609A/F637Y/G606S/G869S/H824Y/L452V/L825P/L872Q/P881A/R785Q/R828P/S823G/S856P/S873P/T871A/V766A); assay: Flow cytometry binding to HEK293T cells transfected with human AXL with mouse ECD; details: 0.0024-10 μg/mL
T4 construct: aa 1-441); expressed in transfected cells; host or cells: HEK293T
T4 sequence (Q00993 19-888 with the stated changes): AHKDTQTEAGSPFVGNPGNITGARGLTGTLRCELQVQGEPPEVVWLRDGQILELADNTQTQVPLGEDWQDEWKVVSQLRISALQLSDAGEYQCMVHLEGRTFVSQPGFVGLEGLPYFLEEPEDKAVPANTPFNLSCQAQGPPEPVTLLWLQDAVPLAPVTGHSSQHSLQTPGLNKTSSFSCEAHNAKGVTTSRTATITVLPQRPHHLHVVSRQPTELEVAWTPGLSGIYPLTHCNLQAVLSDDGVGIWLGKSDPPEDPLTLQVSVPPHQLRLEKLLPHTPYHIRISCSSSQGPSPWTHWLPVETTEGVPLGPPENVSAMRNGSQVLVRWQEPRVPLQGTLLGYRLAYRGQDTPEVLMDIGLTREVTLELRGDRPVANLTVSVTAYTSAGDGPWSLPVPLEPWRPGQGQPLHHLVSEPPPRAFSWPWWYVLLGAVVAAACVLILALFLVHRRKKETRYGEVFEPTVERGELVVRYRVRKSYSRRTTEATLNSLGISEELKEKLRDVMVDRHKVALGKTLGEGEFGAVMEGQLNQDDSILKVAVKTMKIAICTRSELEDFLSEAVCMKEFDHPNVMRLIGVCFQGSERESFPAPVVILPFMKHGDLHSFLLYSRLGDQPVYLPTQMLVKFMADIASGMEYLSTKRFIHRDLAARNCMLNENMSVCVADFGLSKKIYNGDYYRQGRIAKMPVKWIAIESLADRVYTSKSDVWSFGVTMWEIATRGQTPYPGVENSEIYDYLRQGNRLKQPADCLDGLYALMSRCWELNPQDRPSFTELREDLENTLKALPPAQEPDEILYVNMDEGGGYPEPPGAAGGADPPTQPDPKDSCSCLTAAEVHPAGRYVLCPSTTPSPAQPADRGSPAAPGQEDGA

[5] = biological target: T5, human AXL with a cynomolgus monkey extracellular domain (ECD) (Homo sapiens, UniProt P30530, P441T/S191N/S285L/T105A/T112A/T125N/T443A); assay: Flow cytometry binding to HEK293T cells transfected with human AXL with cynomolgus ECD; details: at least 3 experiments
T5 construct: aa 1-447); expressed in transfected cells; host or cells: HEK293T

Row | Molecule | internalization of membrane-bound antibody [1] | Gas6 binding: Maximal binding in presence of AXL antibodies (% of binding in presence of control antibody) [2] [%] | Binding EC50 human AXL Average (s.d.) (human AXL) | Antibody binding to A431 cells: EC50 w/o Gas6 mean (s.d.) (AXL on A431 cells) | Antibody binding to A431 cells: EC50 in presence of Gas6 mean (s.d.) (AXL on A431 cells) | Kdis [3] [s⁻¹] | Kon [3] [M⁻¹ s⁻¹] | binding to AXL with a mouse ECD [4] | Binding EC50 cynomolgus AXL Average (s.d.) [5] | dissociation rate, fold higher than wild-type IgG1-AXL-183 [3]
1 | IgG1-AXL-733: human IgG1,κ anti-AXL antibody, VH SEQ ID NO:34, VL SEQ ID NO:35; FN1 domain binding (antibody, V domains shown, homo sapiens) VH: QVQLVESGGGVVQPGRSLRLSCAASGFSFSTYAMHWVRQAPGKGLEWVAVISYDGDNKYSADSVKGRFTISRDNSKNTLYLQMNSLRAEDTAVYYCARGRKLGIDAFDIWGQGTMVTVSS VL: AIQLTQSPSSLSASVGDRVTITCRASQGISSALAWYQQKPGKAPKLLIYDASSLESGVPSRFSGSGSGTDFTLTISGLQPEDFATYYCQQFNSYPFTFGPGTKVDIK | internalize | 96 | 0.176 (0.094) μg/mL | 0.49 (0.51) μg/mL | 0.62 (0.23) μg/mL | 0.0097 | 160000 | low | 0.254 (0.114) μg/mL | 
2 | IgG1-AXL-511: human IgG1,κ anti-AXL antibody, VH SEQ ID NO:136, VL SEQ ID NO:140; Ig2 domain binding (antibody, V domains shown, homo sapiens) VH: EVQLLESGGGLVQPGGSLRLSCAASGFTFSSYAMNWVRQAPGKGLEWVSGISGSGGHTYHADSVKGRFTISRDNSKNTLYLQMNSLRAEDTAVYYCAKDRYDILTGYYNLLDYWGQGTLVTVSS VL: DIQMTQSPSSLSASVGDRVTITCRASQGISSWLAWYQQKPEEAPKSLIYAASSLQSGVPSRFSGSGSGTDFTLTISSLQPEDFATYYCQQYNSYPLTFGGGAKVEIK | internalize | 113 |  | 0.12 (0.11) μg/mL | 0.30 (0.31) μg/mL | 0.0039 | 170000 |  |  | 
3 | IgG1-AXL-183-N52Q: point mutant of IgG1-AXL-183, VH SEQ ID NO:17, VL SEQ ID NO:18 (antibody, V domains shown, homo sapiens) VH: QVQLQQWGAGLLKPSETLSLTCAVYGGSFSGYYWSWIRQPPGKGLEWIGEIQQSGSTNYNPSLKSRVTISVDTSKNQFSLKLSSVTAADTSVYYCASGNWDHFFDYWGQGTLVTVSS VL: DIQMTQSPSSVSASVGDRVTITCRASQGISSWLAWYQHKPGKAPKLLIYATSSLQSGVTSRFSGSGSGTDFTLTISSLQPEDFATYYCQQAKSFPWTFGQGTKVEIK | internalize |  | 0.350 (0.206) μg/mL |  |  | 0.001 | 42000 | low | 0.324 (0.121) μg/mL | approximately 2.5 fold
4 | IgG1-AXL-183: human IgG1,κ anti-AXL antibody, VH SEQ ID NO:16, VL SEQ ID NO:18; FN1 domain binding (antibody, V domains shown, homo sapiens) VH: QVQLQQWGAGLLKPSETLSLTCAVYGGSFSGYYWSWIRQPPGKGLEWIGEINQSGSTNYNPSLKSRVTISVDTSKNQFSLKLSSVTAADTSVYYCASGNWDHFFDYWGQGTLVTVSS VL: DIQMTQSPSSVSASVGDRVTITCRASQGISSWLAWYQHKPGKAPKLLIYATSSLQSGVTSRFSGSGSGTDFTLTISSLQPEDFATYYCQQAKSFPWTFGQGTKVEIK |  | 115 | 0.526 (0.177) μg/mL | 0.69 (0.72) μg/mL | 1.19 (1.11) μg/mL | 0.00042 | 41000 | low | 0.309 (0.086) μg/mL | 
